In US20160002338A1 (Hoffmann-La Roche, published 2016):

What was measured:
HER3 ECD-HRG complex [1] = biological target: T1, HER3 ECD-HRG complex (human, UniProt P21860 20-643); assay: SPR Biacore 3000, 37 C
T1 construct: also called Heregulin/Her-3 ECD

[2] = biological target: T2, human recombinant HER3 ECD (human, UniProt P21860 20-643); assay: SPR Biacore 3000, 37 C
T2 construct: 68 kDa; also called human-Her3-ECD; full length Her3 ECD

HER4 ECD-HRG complex [3] = biological target: T3, HER4 ECD-HRG complex (human, UniProt Q15303 26-651); assay: SPR Biacore 3000, 37 C
T3 construct: HER4 ECD preincubated with a 5-fold molar excess of Heregulin; also called HER-4-ECD-RG
T3 sequence 1: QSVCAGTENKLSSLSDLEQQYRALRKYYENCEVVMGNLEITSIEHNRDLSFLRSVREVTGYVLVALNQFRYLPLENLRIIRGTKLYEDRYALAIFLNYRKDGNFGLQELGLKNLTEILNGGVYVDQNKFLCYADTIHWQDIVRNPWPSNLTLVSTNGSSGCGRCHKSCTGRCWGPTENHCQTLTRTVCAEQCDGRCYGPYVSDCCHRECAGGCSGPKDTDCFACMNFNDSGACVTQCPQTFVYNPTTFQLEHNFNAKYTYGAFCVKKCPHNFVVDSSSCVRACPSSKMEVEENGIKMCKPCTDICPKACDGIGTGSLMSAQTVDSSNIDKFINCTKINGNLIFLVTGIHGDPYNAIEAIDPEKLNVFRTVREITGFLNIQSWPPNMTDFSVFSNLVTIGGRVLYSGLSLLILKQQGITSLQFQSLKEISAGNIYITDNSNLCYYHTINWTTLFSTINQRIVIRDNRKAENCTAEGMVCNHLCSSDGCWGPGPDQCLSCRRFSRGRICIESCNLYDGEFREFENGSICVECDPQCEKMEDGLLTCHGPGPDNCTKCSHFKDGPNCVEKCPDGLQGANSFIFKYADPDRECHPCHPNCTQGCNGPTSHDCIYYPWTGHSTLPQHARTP
T3 sequence 2: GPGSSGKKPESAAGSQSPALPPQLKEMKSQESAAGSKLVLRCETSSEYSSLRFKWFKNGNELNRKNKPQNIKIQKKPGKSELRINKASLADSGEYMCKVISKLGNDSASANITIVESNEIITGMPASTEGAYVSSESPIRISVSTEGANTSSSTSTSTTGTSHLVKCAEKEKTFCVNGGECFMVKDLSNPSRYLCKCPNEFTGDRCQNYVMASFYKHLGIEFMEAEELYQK

[4] = biological target: T4, human recombinant HER2 ECD (human, UniProt P04626 23-652); assay: SPR Biacore T100, antibody captured, 25 C
T4 construct: 69.6 kDa
Protocol: (§1) A CM5 series sensor was mounted into the system and was normalized in HBS-ET buffer (10 mM HEPES pH 7.4, 150 mM NaCl, 3 mM EDTA, 0.005% w/v Tween 20) according to the manufacturer's instructions. The sample buffer was the system buffer supplemented with 1 mg/ml CMD (Carboxymethyldextran, Sigma #86524). The system operated at 25° C. 6500 RU RAM-Fcγ (relative units of Fcγ-fragment RamIgG, GE Healthcare) were immobilized according to the manufacturer's instructions using EDC/NHS chemistry on all four flow cells. The sensor was deactivated using 1M ethanolamine.
(§2) Analytes in solution were injected at different concentration steps of 0 nM, 1.1 nM, 3.7 nM, 11.1 nM, 33.1 nM and 90 nM for 3.5 min. The dissociation was monitored for 15 min. Where possible, kinetic signatures were evaluated according to a Langmuir fit.

HER3 ECD-HRG complex [5] = biological target: T1, HER3 ECD-HRG complex; assay: SPR Biacore T100, antibody captured, 25 C
Protocol: as §1, §2

[6] = biological target: T2, human recombinant HER3 ECD; assay: SPR Biacore T100, antibody captured, 25 C
Protocol: as §1, §2

[7] = biological target: T5, human Heregulin fragment (HRG) (human); assay: SPR Biacore T100, antibody captured, 25 C
T5 construct: also called Heregulin beta (HRG)
T5 chain: T3 sequence 2
Protocol: as §1, §2

HER4 ECD-HRG complex [8] = biological target: T3, HER4 ECD-HRG complex; assay: SPR Biacore T100, antibody captured, 25 C
Protocol: as §1, §2

[9] = biological target: T6, human recombinant HER4 ECD (human, UniProt Q15303 26-651); assay: SPR Biacore T100, antibody captured, 25 C
T6 construct: also called full length Her4 ECD
T6 sequence: T3 sequence 1
Protocol: as §1, §2

[10] = biological target: T2, human recombinant HER3 ECD; assay: SPR Biacore T200, antibody captured, 25 C
Protocol: (§3) A Biacore T200 instrument (GE Healthcare) was mounted with a CM5 series sensor. The sensor was normalized in HBS-ET buffer (10 mM HEPES pH 7.4, 150 mM NaCl, 3 mM EDTA, 0.05% w/v Tween 20) according to the manufacturer's instructions. The sample buffer was the system buffer supplemented with 1 mg/ml CMD (Carboxymethyldextran, Sigma #86524). The system operated at 25° C. 6500 RU RAM-Fey (relative units of Fey-fragment RamIgG, GE Healthcare) were immobilized according to the manufacturer's instructions using amine coupling EDC/NHS chemistry on all four flow cells. The sensor was deactivated using 1M ethanolamine. […] Concentration dependent kinetics were measured. […] All analytes were injected for 5 min association time and 10 min dissociation time at 100 μl/min flow rate. The sensor capture system was regenerated by a 3 min injection at 10 μl/min of 10 mM glycine pH 1.7. Where possible kinetic data was evaluated using the Biacore T200 evaluation software.

TtSlyDcys-Her3 = biological target: T7, TtSlyDcys-Her3; assay: SPR Biacore T200, antibody captured, 25 C
T7 chain: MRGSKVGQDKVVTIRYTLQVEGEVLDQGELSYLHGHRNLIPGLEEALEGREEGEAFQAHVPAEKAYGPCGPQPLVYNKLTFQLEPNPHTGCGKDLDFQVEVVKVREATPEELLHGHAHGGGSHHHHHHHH
Protocol: as §3

human HER1 ECD = human HER1 ECD (human, UniProt P00533 25-645); assay: SPR Biacore T200, antibody captured, 25 C
Protocol: as §3

[11] = biological target: T6, human recombinant HER4 ECD; assay: SPR Biacore T200, antibody captured, 25 C
Protocol: as §3

T1 sequence (P21860 20-643 limits assumed, one chain of several): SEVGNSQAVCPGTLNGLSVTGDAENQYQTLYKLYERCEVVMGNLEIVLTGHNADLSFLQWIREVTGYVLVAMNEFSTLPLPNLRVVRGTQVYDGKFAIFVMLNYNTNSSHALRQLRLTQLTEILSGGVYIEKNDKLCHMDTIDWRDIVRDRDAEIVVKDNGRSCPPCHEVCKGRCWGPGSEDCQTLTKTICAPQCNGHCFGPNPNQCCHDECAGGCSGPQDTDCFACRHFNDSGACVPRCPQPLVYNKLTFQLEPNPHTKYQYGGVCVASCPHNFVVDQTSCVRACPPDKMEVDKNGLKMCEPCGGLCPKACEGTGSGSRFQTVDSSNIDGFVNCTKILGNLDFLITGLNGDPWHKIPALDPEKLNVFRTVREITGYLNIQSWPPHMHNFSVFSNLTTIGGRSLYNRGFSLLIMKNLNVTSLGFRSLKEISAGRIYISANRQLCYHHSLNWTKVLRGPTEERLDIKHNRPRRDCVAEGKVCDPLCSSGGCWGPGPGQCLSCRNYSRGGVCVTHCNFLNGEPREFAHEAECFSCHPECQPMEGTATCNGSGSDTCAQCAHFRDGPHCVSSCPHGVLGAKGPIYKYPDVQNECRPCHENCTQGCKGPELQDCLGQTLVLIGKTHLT
T2 sequence (P21860 20-643): as the sequence (P21860 20-643 limits assumed, one chain of several) above

B1: anti-HER3/HER4 antibody M-05-74 (antibody, V domains shown)
VH: QVQLQQSGAELAKPGASVKMSCKTSGYTLTDYWIHWVKQRPGQGLEWIGYINPYTGYTESNQKFKDKATLTADKSSNTAYIQLSSLTSEDSAVYYCARPYYYGDYWGQGTTLTVSS
VL: QIVLTQSPAIMSASPGERVTITCSASSSVSYMHWFQQKPGTSPKLLIYSTSNLASGVPARFSGSGSGTSYSLTISRMEAEDAATYYCQQRSSYPFTFGSGTKLEIK
notes: murine monoclonal antibody from hybridoma (supernatant or purified); also called M-074; M-5-74
Molar Ratio MR (HER3 ECD-HRG complex [1]): 0.7
Molar Ratio MR [2]: 0.6
Molar Ratio MR (HER4 ECD-HRG complex [3]): 0.9
binding result [4]: no binding (tested: 90 nM)
Binding Late BL (HER3 ECD-HRG complex [5]): 160 RU
Molar Ratio MR (HER3 ECD-HRG complex [5]): 0.6
ratio MR (+Heregulin)/MR (-Heregulin) (HER3 ECD-HRG complex [5]): 3
ratio ka (Her3-ECD-HRG)/ka (Her3-ECD) (HER3 ECD-HRG complex [5]): 4.85
Binding Late BL [6]: 70 RU
Molar Ratio MR [6]: 0.2
binding result [7]: no binding (tested: 90 nM)
Binding Late BL (HER4 ECD-HRG complex [8]): 349 RU
Molar Ratio MR (HER4 ECD-HRG complex [8]): 0.6
ratio MR (+Heregulin)/MR (-Heregulin) (HER4 ECD-HRG complex [8]): 6
ratio ka (Her4-ECD-HRG)/ka (Her4-ECD) (HER4 ECD-HRG complex [8]): 23.9
Binding Late BL [9]: 27 RU
Molar Ratio MR [9]: 0.1
Molar Ratio MR [10]: 0.1
Molar Ratio MR (TtSlyDcys-Her3): 1.9
binding result (human HER1 ECD): no binding (tested: 90 nM)
Molar Ratio MR [11]: 0.1
